Experiment [1] deals with GLP-1 receptor (Example 19, species not stated). Put plainly: cell-based or functional assay.
Experiment [2] deals with cyno glucagon receptor (cyno). Put plainly: cell-based or functional assay.

Turning to semaglutide (peptide), in experiment [1], the pEC50, cAMP accumulation, 0% HSA was 11.6 -log M; the pEC50, cAMP accumulation, 0.1% HSA was 10.3 -log M; the pEC50, cAMP accumulation, 4% HSA is 9.24 -log M. Besides, in experiment [2], the cGCGR pEC50, cAMP accumulation was < 9 -log M.

The record behind these values is patent publication US20230063420A1.
